9 molecules from patent US20220204643A1 (published 2022) can be followed below.

The target of test [1] is T1, phosphoglucomutase 2 like 1 (human, UniProt Q6PCE3 1-622 at identity 1.00)).
T1 construct: on protein array; also called PGM2L1
T1 sequence: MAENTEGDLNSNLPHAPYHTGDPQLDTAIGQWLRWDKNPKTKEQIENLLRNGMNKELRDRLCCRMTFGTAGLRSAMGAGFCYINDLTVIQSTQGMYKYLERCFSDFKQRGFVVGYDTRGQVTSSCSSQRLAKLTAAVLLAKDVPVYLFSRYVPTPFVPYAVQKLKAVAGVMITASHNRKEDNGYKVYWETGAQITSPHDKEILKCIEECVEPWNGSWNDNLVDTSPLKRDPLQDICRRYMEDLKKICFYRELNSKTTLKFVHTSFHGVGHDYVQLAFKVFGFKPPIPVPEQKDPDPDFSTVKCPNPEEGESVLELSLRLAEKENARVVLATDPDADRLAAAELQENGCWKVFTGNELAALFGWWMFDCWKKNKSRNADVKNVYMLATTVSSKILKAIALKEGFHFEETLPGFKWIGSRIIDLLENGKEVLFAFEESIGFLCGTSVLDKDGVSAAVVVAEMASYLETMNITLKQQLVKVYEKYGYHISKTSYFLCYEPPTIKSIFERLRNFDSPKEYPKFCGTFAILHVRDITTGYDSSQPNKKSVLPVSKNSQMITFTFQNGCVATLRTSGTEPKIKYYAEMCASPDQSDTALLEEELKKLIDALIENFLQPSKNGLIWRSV
Put plainly: protein array.

Another test addresses T2, programmed cell death 1 (human, UniProt Q15116 25-288).
T2 construct: on protein array; also called PDCD1
As to the kind of experiment: protein array, with experimental replicate.

In test [2] the target is T3, BCL2 apoptosis regulator, transcript variant alpha (human, UniProt P10415 1-239).
T3 construct: on protein array
T3 sequence (P10415 whole entry, change not shown): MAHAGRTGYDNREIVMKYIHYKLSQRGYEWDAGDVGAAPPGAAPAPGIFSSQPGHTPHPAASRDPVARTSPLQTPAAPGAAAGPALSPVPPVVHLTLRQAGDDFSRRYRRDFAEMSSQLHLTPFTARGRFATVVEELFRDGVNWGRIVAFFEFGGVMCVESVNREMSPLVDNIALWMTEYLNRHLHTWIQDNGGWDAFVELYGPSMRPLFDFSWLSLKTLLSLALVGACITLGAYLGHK
Put plainly: protein array.

The target of test [3] is T4, acyl-CoA binding domain containing 6 (human, UniProt Q9BR61 1-282).
T4 construct: on protein array; also called ACBD6
T4 sequence: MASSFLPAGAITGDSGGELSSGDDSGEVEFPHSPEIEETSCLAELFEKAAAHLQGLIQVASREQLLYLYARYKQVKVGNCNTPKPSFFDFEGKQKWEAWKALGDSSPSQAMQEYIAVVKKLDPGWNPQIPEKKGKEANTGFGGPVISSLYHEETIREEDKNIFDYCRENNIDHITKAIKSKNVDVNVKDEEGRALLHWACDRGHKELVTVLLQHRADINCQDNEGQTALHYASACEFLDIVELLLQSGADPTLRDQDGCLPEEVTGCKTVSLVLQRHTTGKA
Put plainly: protein array.

In test [4] the target is T5, glyoxylate and hydroxypyruvate reductase (human, UniProt Q9UBQ7 1-328).
T5 construct: on protein array; also called GRHPR
T5 sequence: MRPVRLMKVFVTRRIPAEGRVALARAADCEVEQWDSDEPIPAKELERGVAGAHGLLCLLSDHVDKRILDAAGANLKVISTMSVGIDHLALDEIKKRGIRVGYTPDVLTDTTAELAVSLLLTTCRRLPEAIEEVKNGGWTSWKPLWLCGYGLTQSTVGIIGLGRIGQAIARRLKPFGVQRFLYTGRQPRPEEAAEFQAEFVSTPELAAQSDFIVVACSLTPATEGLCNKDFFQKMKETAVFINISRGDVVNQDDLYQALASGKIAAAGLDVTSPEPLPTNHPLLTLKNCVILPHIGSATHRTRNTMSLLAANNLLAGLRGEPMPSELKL
As to the kind of experiment: protein array.

A further test deals with T6, phosducin like (human, UniProt Q13371 2-301).
T6 construct: on protein array; also called PDCL
T6 sequence: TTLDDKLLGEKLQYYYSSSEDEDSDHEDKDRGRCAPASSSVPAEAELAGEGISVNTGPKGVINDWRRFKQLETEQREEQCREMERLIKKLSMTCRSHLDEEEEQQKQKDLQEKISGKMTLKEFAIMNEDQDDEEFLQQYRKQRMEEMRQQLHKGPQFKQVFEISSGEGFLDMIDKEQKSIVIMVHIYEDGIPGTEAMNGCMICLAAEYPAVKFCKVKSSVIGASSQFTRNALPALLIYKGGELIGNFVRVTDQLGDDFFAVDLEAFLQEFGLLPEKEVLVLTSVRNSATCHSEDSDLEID
As to the kind of experiment: protein array.

In test [5] the target is T7, transforming growth factor beta induced (human, UniProt Q15582 24-683).
T7 construct: on protein array; also called TGFBI
T7 sequence: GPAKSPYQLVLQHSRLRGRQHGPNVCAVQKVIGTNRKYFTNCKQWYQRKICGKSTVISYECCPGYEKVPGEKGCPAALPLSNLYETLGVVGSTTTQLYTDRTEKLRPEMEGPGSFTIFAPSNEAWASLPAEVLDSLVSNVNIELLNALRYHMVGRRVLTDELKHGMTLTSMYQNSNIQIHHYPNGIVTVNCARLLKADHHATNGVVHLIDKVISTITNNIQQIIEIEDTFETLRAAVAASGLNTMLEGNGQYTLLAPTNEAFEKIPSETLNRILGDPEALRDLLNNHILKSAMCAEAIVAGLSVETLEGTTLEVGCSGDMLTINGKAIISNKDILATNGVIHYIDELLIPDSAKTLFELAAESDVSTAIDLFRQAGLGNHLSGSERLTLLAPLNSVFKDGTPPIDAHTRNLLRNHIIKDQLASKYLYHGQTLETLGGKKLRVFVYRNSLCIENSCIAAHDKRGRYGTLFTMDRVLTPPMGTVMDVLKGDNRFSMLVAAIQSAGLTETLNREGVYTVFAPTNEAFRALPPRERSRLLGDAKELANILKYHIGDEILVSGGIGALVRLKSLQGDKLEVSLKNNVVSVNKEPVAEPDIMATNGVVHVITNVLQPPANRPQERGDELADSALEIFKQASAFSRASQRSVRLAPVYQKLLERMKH
Put plainly: protein array.

A further test concerns the target T8, Dexd-box helicase 52 (human, UniProt Q9Y2R4 1-599).
T8 construct: on protein array; also called DDX52
T8 sequence: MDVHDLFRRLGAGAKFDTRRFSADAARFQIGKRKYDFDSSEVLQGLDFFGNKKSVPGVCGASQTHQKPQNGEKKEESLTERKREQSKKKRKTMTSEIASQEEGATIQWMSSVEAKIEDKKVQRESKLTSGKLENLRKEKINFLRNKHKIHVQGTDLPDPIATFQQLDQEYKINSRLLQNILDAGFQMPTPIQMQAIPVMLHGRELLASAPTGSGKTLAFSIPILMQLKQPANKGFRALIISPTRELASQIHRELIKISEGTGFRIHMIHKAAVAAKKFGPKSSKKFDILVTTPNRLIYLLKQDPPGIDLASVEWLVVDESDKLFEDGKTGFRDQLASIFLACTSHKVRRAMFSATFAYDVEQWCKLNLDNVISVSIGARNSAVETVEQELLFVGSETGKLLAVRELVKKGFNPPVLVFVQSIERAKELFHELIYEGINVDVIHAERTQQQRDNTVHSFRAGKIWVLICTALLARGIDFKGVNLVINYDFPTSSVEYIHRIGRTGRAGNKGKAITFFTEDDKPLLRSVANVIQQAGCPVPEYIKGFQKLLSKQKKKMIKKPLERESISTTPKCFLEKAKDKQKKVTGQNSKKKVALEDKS
As to the kind of experiment: protein array.

In test [6] the target is T9, G protein-coupled receptor 4 (human, UniProt P46093 1-362).
T9 construct: on protein array; also called GPR4
T9 sequence (P46093 whole entry): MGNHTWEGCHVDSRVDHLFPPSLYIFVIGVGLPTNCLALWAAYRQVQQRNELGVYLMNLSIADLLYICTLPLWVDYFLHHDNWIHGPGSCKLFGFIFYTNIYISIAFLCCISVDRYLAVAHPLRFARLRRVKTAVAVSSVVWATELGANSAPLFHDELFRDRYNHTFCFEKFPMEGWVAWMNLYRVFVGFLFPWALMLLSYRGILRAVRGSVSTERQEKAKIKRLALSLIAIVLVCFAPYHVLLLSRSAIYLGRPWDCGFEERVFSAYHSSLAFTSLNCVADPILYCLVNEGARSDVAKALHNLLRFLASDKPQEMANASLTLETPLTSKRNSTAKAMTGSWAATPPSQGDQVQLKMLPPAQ
As to the kind of experiment: protein array.

Test [7] has as its target T10, zinc finger with KRAB and SCAN domains 4, transcript variant X1 (human, UniProt Q969J2 1-545).
T10 construct: on protein array; also called ZKSCAN4
T10 sequence: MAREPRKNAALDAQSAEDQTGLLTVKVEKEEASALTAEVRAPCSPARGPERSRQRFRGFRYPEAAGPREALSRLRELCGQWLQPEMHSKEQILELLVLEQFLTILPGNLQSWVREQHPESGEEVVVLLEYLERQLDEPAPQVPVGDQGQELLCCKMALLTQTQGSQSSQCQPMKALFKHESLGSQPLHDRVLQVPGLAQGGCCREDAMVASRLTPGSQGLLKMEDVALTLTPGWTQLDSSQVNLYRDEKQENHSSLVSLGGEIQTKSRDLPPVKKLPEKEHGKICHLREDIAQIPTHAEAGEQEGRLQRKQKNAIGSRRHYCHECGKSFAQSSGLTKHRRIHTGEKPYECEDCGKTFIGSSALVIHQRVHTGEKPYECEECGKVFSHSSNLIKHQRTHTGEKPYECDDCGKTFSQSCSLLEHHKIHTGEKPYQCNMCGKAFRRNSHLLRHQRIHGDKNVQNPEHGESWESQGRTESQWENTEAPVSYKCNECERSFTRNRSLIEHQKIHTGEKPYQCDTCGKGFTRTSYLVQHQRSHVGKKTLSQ
As to the kind of experiment: protein array.

T2 sequence (Q15116 25-288 limits assumed): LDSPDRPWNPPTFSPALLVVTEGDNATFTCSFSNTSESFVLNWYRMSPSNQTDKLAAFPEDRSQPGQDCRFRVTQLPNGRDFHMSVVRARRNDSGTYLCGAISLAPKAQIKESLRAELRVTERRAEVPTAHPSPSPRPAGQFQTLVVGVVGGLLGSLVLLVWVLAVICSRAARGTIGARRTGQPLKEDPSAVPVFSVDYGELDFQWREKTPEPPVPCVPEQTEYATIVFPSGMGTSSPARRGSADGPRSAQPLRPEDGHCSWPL

B1: TTES1002 (antibody, V domains shown)
VH: QVQLQESGPGLVKPSETLSLICTVSGASVNSGTHFWSWIRQPPGKGLEWIGYVYYSGNTNYNPSLKSRVAISVDTSKNQFSLKLTSVTSADTAVYYCARDFDDGYDIRYWGQGTRVSVSS
VL: QSALTQPASVSGSPGQSITISCTGSSNDIGRYKYVSWFQHHPGRAPKLIIYEVNNRPSGLSHRFSGSKSGNTASLTISGLQAEDEADYYCCSYTSSLTYVFGTGTAVTVL
notes: VH/VL tied via antigen in summary, not by name in this stretch
For the molecule B1, the binding result in test [1] is listed as “binds”.

B2: TTES1003 (antibody, V domains shown)
VH: VVQLVESGGGLVQPGGSLRLSCSASGFTFSSYAMHWVRQAPGKGLEYVSAISSNGGSTYYADSVKGRFTISRDNSKNTLYLQMSSLRAEDTAVYYCVKSPVAANDAFDIWGQGTMVTVSS
VL: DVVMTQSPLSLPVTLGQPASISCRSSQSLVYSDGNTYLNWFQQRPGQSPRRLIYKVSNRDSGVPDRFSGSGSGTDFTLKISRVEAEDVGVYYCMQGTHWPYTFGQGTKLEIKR
notes: as for B1
As for B2, the binding result with programmed cell death 1 was “binds”.

B3: TSTO1010 (antibody, V domains shown)
VH: EVQLVESGGGLVKPRGSLRLSCAASGFTFSAYGMNWVRQAPGKGLEWVSSISGDSRDIYYGASMKGRFTISRDNAKSSLYLQMNSLRAEDTAVYYCARGEGGELWAFDYWGLGVLVTVSS
VL: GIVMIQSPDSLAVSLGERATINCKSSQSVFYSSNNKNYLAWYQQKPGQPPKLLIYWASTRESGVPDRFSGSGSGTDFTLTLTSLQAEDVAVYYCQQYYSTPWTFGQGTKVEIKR
notes: as for B1
In the case of B3, the binding result in [2] is recorded as “binds”.

B4: TTES1006 (antibody, V domains shown)
VH: EVQLVESGGGLVQPGGSLRLSCAASGFTFSKFWMHWVRQAPGKGLVWLSRINTDGTVTTYADSVKGRFTISRDNAKSTLYLQMNSLRVEDTAVYYCAGGGSQVDFWGQGTLVTVSS
VL: PYELTQPPSVSVSPGQTASIACSGDNLGNKYAWWYRQKPGQSPVLVMYKDNKRPSGIPERFSGSNSGNTATLTISGTQAMDEADYYCQTWDSSTVIFGGGTKLTVQ
notes: as for B1
For the molecule B4, the binding result in test [3] is given as “binds”.

B5: TTES1004 (antibody, V domains shown)
VH: EVQLVESGGGLVQPGGSLRLSCVASGFTFSSYSMNWVRQAPGKGLKWVSYISSSRSTIYNADSVKGRFTISRDNAKKSLYLQMNSLRAEDTAVYYCARVSVAAPTCLDYWGQGTLVTVSS
VL: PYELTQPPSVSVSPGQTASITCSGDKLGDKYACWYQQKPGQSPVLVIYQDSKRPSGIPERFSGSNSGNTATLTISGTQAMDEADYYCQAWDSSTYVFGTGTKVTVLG
notes: as for B1
Consider B5, for which, in test [4], the binding result was “binds”.

B6: TTES1007 (antibody, V domains shown)
VH: QITLKESGPTLVKPTQTLTLTCTFSGFSLTTTGVGVGWIRQPPGKALEWLALIYWDDDKRYSPSLKSRLIITKDTSKNQVVLTMTNMDPVDTATYYCAHRFGRGVSYYYYGMDVWGQGTTVTVSS
VL: not shown
notes: as for B1
B6: the binding result with phosducin like is listed as “binds”.

B7: TSTO1008 (antibody, V domains shown)
VH: AVQLVQSGAEVKKPGESLRISCKGSGYSFSTYWIIWVRQMPGKGLEWIGRFDPSDSYNVNSPSFQGHVTISADTSINTAYLQWSSLKASDSAMYYCARRSDKAVPGTFDQWGQGTLVTVSS
VL: RSVLTQPPSVSAAPGQKVIISCSGSSSNIGNNYVSWYQQFLGTAPKLLIYDTDKRPSGIPDRFSGSKSGTSATLGITGLQTGDEAHYYCATWDSSLRAGPVVFGGGTKLTVLG
notes: as for B1
As for B7, the binding result in test [5] is recorded as “binds”.

B8: TTES1008 (antibody, V domains shown)
VH: QVQLVESGGGVVQPGRSLRLSCAASGFIFSSYGMHWVRQAPGKGLEWVAVISYDGSNKYYADSVKGRFTISRDKSKNTLHLQMNSLRAEDTAVYYCAKDSGSNDDMDVWGKGTTVTVSS
VL: QSVLTQPPSVSAAPGQKVTISCSGSSSNIGNNYVSWYQQLPGTAPKLLIYDNNKRPSGIPDRFSGSKSGTSATLGITGLQTGDEADYYCGTWDSSLSAGVFGTGTKVTVLG
notes: as for B1
B8: the binding result (with Dexd-box helicase 52; in test [6]) was “binds” throughout.

B9: TBRE1009 (antibody, V domains shown)
VH: EVQLVESGGGLVKPGGSLRLSCVGSGFTFSNYSMNWVRQAPGRGLEWVSSISWGSSYINYADSVKGRFTISRDNAKNSLYLQMTSLTAEDTAVYYCACRRIYQGFDPWGQGTLVT
VL: DIQMTQSPSSLSASVGDRVTISCRASHNINTYLNWYQHKPGKAPKIVIYGASSLQSGVPSRFSGSGSGTDFSLTISSLQREDFATYFCQQSFNTVLTFGGGTRVDI
notes: VH/VL only
In the case of B9, the binding result in test [7] is listed as “binds”.
